Assay results as given in patent publication US11912789 (INTERK PEPTIDE THERAPEUTICS, dated 2024).
No end group written: not given here. 2Adod = 2-amino-dodecanoic acid; 2Adec = 2-amino-decanoic acid; 12Ado = NCCCCCCCCCCCC(=O)O

Biological target: T1, Lymphocyte-specific protein tyrosine kinase (Lck), enzyme in cell-free kinase assay (human, UniProt P06239 1-509, limits assumed)
Test: cell-based or functional assay

T1 sequence (P06239 whole entry): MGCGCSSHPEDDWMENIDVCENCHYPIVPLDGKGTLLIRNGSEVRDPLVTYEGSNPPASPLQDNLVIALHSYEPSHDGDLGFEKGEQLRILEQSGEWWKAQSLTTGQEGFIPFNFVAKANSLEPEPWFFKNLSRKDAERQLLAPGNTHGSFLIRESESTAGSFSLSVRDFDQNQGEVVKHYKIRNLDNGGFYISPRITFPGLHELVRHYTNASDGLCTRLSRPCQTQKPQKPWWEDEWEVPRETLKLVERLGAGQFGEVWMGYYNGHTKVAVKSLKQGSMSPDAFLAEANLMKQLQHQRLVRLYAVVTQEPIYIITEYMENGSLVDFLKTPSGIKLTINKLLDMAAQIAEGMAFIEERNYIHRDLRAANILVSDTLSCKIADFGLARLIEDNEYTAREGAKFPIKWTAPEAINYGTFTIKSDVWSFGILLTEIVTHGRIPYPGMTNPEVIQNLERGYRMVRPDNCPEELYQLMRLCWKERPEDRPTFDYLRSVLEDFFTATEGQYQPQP

RSKAKNPLYR-{2Adod-2Adod-2Adod-2Adod-OH} [RSKAKNPLYR-(2Adod)4-OH] was tested, and the “level of Lck activation relative to the amidated compound …-(2Adod)4-NH2” value was ~50%.

Biological target: T1, Lymphocyte-specific protein tyrosine …
Test: cell-based or functional assay
Remark: another data set of the same source

First: RSKAKNPLY
Second: RSKAKNPLYR
The “Lck activity relative to control, peptide at 10 µM” value of the first is higher: 186% for the first, 0% for the second.

Biological target: Blk (UniProt P51451 1-505, limits assumed)
Sequence (P51451 whole entry): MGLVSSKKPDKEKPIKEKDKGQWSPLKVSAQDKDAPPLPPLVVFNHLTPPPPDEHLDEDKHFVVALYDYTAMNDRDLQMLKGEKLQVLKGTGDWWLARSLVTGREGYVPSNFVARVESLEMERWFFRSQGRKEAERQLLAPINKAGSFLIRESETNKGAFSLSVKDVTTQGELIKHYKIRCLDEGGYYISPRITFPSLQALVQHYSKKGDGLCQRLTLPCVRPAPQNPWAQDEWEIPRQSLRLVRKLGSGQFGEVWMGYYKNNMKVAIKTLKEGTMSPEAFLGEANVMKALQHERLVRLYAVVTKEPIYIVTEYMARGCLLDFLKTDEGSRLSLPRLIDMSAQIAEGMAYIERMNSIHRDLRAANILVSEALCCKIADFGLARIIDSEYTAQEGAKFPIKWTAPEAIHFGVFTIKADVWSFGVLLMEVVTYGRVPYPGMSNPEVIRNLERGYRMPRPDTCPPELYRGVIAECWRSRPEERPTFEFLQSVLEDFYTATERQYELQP
Test: cell-based or functional assay

RSKAKNPLY and RSKAKNPLYR are the same in “Blk activity relative to control, peptide at 10 µM” value: 0% for the first, 0% for the second.

Biological target: cSRC (UniProt P12931 1-536, limits assumed)
Test: cell-based or functional assay

RSKAKNPLY and RSKAKNPLYR are the same in “cSRC activity relative to control, peptide at 10 µM” value: 0% for the first, 0% for the second.

Biological target: Fgr (UniProt P09769 1-529, limits assumed)
Test: cell-based or functional assay

RSKAKNPLY and RSKAKNPLYR are the same in “Fgr activity relative to control, peptide at 10 µM” value: 0% for the first, 0% for the second.

Biological target: Fyn (UniProt P06241 1-537, limits assumed)
Sequence (P06241 whole entry): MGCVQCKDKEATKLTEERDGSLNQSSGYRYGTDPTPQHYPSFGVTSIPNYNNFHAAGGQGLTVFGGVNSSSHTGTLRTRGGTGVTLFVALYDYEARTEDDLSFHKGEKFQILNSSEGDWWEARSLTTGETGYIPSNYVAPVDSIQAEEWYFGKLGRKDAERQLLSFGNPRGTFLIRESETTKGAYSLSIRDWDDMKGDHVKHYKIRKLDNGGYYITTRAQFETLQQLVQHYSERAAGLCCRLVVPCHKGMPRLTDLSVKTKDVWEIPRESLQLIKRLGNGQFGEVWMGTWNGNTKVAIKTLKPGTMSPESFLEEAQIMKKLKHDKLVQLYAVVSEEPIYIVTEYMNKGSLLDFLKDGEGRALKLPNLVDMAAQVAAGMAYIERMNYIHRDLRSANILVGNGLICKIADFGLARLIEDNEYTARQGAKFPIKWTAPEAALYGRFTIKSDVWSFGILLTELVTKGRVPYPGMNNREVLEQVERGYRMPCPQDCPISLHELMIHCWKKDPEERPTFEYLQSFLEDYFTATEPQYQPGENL
Test: cell-based or functional assay

RSKAKNPLY and RSKAKNPLYR are the same in “Fyn activity relative to control, peptide at 10 µM” value: 0% for the first, 0% for the second.

Biological target: Hck (UniProt P08631 251-518, limits assumed)
Sequence (P08631 251-518 limits assumed): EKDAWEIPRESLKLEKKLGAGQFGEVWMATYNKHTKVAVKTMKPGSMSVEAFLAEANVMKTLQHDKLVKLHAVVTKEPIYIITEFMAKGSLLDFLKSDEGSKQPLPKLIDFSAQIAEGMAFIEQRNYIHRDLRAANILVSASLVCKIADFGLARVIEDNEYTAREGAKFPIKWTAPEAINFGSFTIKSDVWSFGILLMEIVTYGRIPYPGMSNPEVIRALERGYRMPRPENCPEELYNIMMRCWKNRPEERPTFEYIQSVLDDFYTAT
Test: cell-based or functional assay

RSKAKNPLY and RSKAKNPLYR are the same in “Hck activity relative to control, peptide at 10 µM” value: 0% for the first, 0% for the second.

Biological target: Lyn (UniProt P07948 1-512, limits assumed)
Sequence (P07948 whole entry): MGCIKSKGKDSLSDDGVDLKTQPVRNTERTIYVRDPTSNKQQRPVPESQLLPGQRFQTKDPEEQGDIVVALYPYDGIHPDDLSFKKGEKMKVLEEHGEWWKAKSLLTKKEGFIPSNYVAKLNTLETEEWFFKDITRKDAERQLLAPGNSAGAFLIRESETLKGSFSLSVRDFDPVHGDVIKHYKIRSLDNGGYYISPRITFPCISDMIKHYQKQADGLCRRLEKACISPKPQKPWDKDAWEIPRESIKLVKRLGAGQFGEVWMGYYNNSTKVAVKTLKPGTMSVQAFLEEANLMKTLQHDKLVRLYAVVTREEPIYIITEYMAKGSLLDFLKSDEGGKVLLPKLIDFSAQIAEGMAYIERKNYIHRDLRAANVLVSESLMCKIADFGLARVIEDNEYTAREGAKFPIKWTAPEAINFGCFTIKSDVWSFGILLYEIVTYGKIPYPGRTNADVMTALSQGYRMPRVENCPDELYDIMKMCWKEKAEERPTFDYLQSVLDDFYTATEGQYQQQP
Test: cell-based or functional assay

RSKAKNPLY and RSKAKNPLYR are the same in “Lyn activity relative to control, peptide at 10 µM” value: 0% for the first, 0% for the second.

Biological target: Yes (UniProt P07947 1-543, limits assumed)
Sequence (P07947 whole entry): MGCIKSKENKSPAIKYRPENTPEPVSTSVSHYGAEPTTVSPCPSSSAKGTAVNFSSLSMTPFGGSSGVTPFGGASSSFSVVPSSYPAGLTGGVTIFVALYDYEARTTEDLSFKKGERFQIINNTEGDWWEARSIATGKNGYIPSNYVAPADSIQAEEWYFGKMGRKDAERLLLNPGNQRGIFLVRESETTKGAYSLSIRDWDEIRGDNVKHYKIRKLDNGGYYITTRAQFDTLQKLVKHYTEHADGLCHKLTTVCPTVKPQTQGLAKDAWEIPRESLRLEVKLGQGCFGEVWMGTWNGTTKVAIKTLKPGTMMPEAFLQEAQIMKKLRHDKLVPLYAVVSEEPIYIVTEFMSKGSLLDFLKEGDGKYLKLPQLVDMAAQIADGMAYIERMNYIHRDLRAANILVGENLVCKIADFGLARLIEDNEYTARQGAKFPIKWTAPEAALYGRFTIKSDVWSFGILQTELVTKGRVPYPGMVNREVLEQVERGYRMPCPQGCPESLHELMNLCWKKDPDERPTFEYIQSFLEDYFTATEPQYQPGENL
Test: cell-based or functional assay

RSKAKNPLY and RSKAKNPLYR are the same in “Yes activity relative to control, peptide at 10 µM” value: 0% for the first, 0% for the second.

Biological target: T1, Lymphocyte-specific protein tyrosine …
Test: cell-based or functional assay
Remark: another data set of the same source

RSKAKNPLY and RSKAKNPLYR are the same in “Lck Activation above control, 1 µM” value: 0% for the first, 0% for the second.

ASKAKNPLY and RSAAKNPLY are the same in “Lck Activation above control, 1 µM” value: 0% for the first, 0% for the second.

RSKAANPLY and SKAKNPLYR are the same in “Lck Activation above control, 1 µM” value: 0% for the first, 0% for the second.

KEKLKNPLF and RSRARNPLY are the same in “Lck Activation above control, 1 µM” value: 0% for the first, 0% for the second.

Compared with RYLPNKAKS, RVKVKVVVVR is higher in “Lck Activation above control, 1 µM” value: 0% for the first, 13% for the second.

With RVKVKVVVV the “Lck Activation above control, 1 µM” value was 518%.

Compared with RSKAKNPLY, RSKAKNPLYR is lower in “Lck Activation above control, 10 µM” value: 186% for the first, 0% for the second.

ASKAKNPLY and RSAAKNPLY are the same in “Lck Activation above control, 10 µM” value: 0% for the first, 0% for the second.

RSKAANPLY and SKAKNPLYR are the same in “Lck Activation above control, 10 µM” value: 0% for the first, 0% for the second.

KEKLKNPLF and RSRARNPLY are the same in “Lck Activation above control, 10 µM” value: 0% for the first, 0% for the second.

First: RYLPNKAKS
Second: RVKVKVVVVR
The “Lck Activation above control, 10 µM” value of the first is lower: 0% for the first, 183% for the second.

With RVKVKVVVV the “Lck Activation above control, 10 µM” value was 501%.

Compared with RSKAKNPLY, RSKAKNPLYR is lower in “Lck Activation above control, 30 µM” value: 407% for the first, 0% for the second.

ASKAKNPLY and RSAAKNPLY are the same in “Lck Activation above control, 30 µM” value: 0% for the first, 0% for the second.

RSKAANPLY and SKAKNPLYR are the same in “Lck Activation above control, 30 µM” value: 0% for the first, 0% for the second.

Going from KEKLKNPLF to RSRARNPLY, the “Lck Activation above control, 30 µM” value falls from 14% to 0%.

First: RYLPNKAKS
Second: RVKVKVVVV
The “Lck Activation above control, 30 µM” value of the first is lower: 5% for the first, 363% for the second.

Biological target: T1, Lymphocyte-specific protein tyrosine …
Test: cell-based or functional assay
Remark: another data set of the same source

Compared with DSEAENPLYD-{2Adod-2Adod-2Adod-2Adod-NH2} [DSEAENPLYD-(2Adod)4-NH2], RSKAKNPLYR-{12Ado-12Ado-12Ado-12Ado-NH2} [RSKAKNPLYR-(12-Adod)4-NH2] is higher in “Lck Activation above control, 1 µM” value: 0% for the first, 96% for the second.

Going from RSKAKNPLYR-{2Adec-2Adec-2Adec-2Adec-NH2} [RSKAKNPLYR-(2-Adec)4-NH2] to RSKAKNPLYR-{2Adod-2Adod-2Adod-2Adod-NH2} [RSKAKNPLYR-(2Adod)4-NH2], the “Lck Activation above control, 1 µM” value rises from 127% to 499%.
